# In the RNAGym collection of RNA variant scans (doi:10.1073/pnas.2313332121):
# This sample holds only a part of the variants without activity.
# B1: TPR 5TU (parent)
# chain: GGAUCUUCUCGAUCUAACAAAAAAGACAAAUCUGCCACAAAGCUUGAGAGCAUCUUCGGAUGCAGAGGCGGCAGCCUUCGGUGGCGCGAUAGCGCCAACGUUCUCAACUAUGACACGCAAAACGCGUGCUCCGUUGAAUGGAGUUUAUCAUG
# Variants of: B1
# Experiment: polymerase ribozyme fitness, log enrichment relative to wild type (log ratio); higher = more active; in vitro selection for triplet polymerase activity
# Summary of the method: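 The heterodimeric triplet polymerase ribozyme's subunits were each mutagenized into PCR-built libraries and transcribed. Every library was selected once, in triplicate, by annealing with a biotinylated primer, the partner subunit and triplets, incubating frozen at −7 °C, gel-excising extended constructs, capturing on streptavidin beads and running RT-PCR. Input and output libraries were Illumina-sequenced, with genotypes kept only at ≥10 input reads and ≥1 read per output. Fitness, from inverse-variance-weighted replicate averages, is the base-2 logarithm of genotype enrichment over wild-type enrichment.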
row,Variant,polymerase ribozyme fitness (log ratio)
1,U61A C105G A121U,≤ -4.2
2,U31C G83C A107U,-4
3,G11U G94C A106G,-1.62
4,A12G G143U,-2.62
5,A26C G58C A60U G71C C93G,≤ -4.2
6,G84U G141C,-2.49
7,U55A A73G U77G A91C C116A G141A,≤ -4.2
8,A12U U53A,-1.75
9,U56A G83A C87U,-3.83
10,C14G U139C,≤ -4.2
11,C96U C114U,-2.66
12,C51U G59C,0.723
13,A60G G88U A97U A107G C114U,≤ -4.2
14,U6C C27G C32A U53A A142U C149G,≤ -4.2
15,A19C C32U A37G A52G C87G A89U U90A C125G U139G,≤ -4.2
16,A91U A147C,≤ -4.2
17,A30G C38U G48A A66C G80U G84A C105G U109A C125A,≤ -4.2
18,U55A C85A U102A,≤ -4.2
19,A52U U55G C76U,-4.08
20,U61A C85U A89U C118A C149U,-3.61
21,G81A U104G C105A G136C U146C,≤ -4.2
22,C14A G48C U56A C96A,-3.68
23,A16C G58C G83U A119C,-1.98
24,G84A C87A,≤ -4.2

row,Variant,polymerase ribozyme fitness (log ratio)
1,C5U A16U C54U C87U G117A A119U,-1.75
2,A40G G86U A120G,-3.99
3,G46C C87A G94C U101A U134A G141U,≤ -4.2
4,A16U A19U A20U A40U G86U C96U,≤ -4.2
5,C18G A29U U44G U55G C57A C93U U104G,≤ -4.2
6,C35A U56A U102G C105A G152A,≤ -4.2
7,U53A U104G,-1.97
8,A40C U44A U55A C57A C76A,≤ -4.2
9,G88C C131G U151G,≤ -4.2
10,A24C G71A U135C U146C U148A,≤ -4.2
11,A28U U82C C93U C96G C105A,≤ -4.2
12,G80A G83C,-3.01
13,U53A C69U,-4.11
14,C10G A26U C43A G94C U127C G143U,≤ -4.2
15,G48U G74A C85G A115C U134A,≤ -4.2
16,C43G U45G U134C,≤ -4.2
17,C27A G50C G74C U77C U104A,≤ -4.2
18,C43U C87U,-3.73
19,C85A C103U C123G A147U,-0.703
20,G48C G58U C105G C114G U135C,≤ -4.2
21,G68C C69A G92U G136A,-4.11
22,A20C A29C G92U C149G,≤ -4.2
23,G83U C103U C116A G117A U148A,≤ -4.2
24,C32G G88C,-3.96

row,Variant,polymerase ribozyme fitness (log ratio)
1,U55A A64G,-3.3
2,A23C A110G U111A,≤ -4.2
3,C54A C116U,-0.368
4,U45A G136C,≤ -4.2
5,C32A G50A C57A U82A C99A U101A,≤ -4.2
6,A22C G34A A64G U144G U151A,-4.04
7,C38G C69A C85A C96A A97C,-3.84
8,A52G G59C C99U,-1.42
9,C54U U56A C93U C131G G133A U146A G152U,-4
10,A20U G58A G81A,-0.836
11,C14U A23U A37C A52G G58C C85G A119C A137U,≤ -4.2
12,A19C A52G,-0.125
13,G59C A97U A106G C118G G124A U145G,-2.18
14,U15G A16U C95U A121U U130G,≤ -4.2
15,G34A G70A A89G A122G,-4.01
16,A39U C54U A60U C75G C79A U90A,≤ -4.2
17,U6C A49U C63G,-2.48
18,U55A G68A G86U U90A A97U U101A A137C U145C,≤ -4.2
19,U78A G83U,≤ -4.2
20,C18G G88A G100C C103G,≤ -4.2
21,A19U C35U G86A A119G G141A,-3.69
22,G71A G84U U101C A142C,≤ -4.2
23,A12U A29C C87A G94U,≤ -4.2
24,U6G A40U A115G,-1.66

row,Variant,polymerase ribozyme fitness (log ratio)
1,U44A C85U C87A G117U C149U,≤ -4.2
2,A19U C79U G83A G88C,≤ -4.2
3,A28C C38A G46A A66C G71U U127G,≤ -4.2
4,A3U G68A U77A C85G C149G,≤ -4.2
5,G83U A97U C105U G117U G141U,≤ -4.2
6,A29G C95A A119C G141C,≤ -4.2
7,A37C G81C C85G C116G U144G,-4.04
8,A39G U145A,-1.85
9,U45A U56A G65C A91U G92A U130C A147U,≤ -4.2
10,C51G G94A,-1.79
11,C57A C105U A120G,0.486
12,C57A A66G C87A,≤ -4.2
13,U53A A89C,-0.605
14,U4C C75A C85G C99G U145G A147U,≤ -4.2
15,C72U A89C C95U C105U,-1.12
16,G46C A98U,-1.22
17,A24U G141A,0.58
18,A37G U56G,-1.45
19,C35U A49C G94C A98G C118U,≤ -4.2
20,U56G U61G G128U,-3.73
21,A64G G84U,-4.16
22,G94C C96U,-1.08
23,C18U G140U,-3.29
24,U31G G46C A60U A73G C76G C79U G92A C93U C96G U135G,≤ -4.2

row,Variant,polymerase ribozyme fitness (log ratio)
1,A28G C36U C87A A119U G133A,≤ -4.2
2,U44A U56A A64C A91U C105U C108G A110C U135G,≤ -4.2
3,G42C U56G G68U U78A C93U A142C,≤ -4.2
4,A23C A41C C54G U77A A91G C105G G126A G136A A137G,≤ -4.2
5,U6C G71A G92A A97G G141U,≤ -4.2
6,A52C G83A,-2.46
7,C38U C93A,-2.86
8,C87G G126A,-4.11
9,U33C A47G C93U C103A C132U A137C,≤ -4.2
10,G50A C75U C76U U77A C96A A110G,≤ -4.2
11,A20U A41C,-2.09
12,A41C C85U G112C,-3.5
13,G65C,≤ -4.2
14,A106G C118A,-0.47
15,A47U U82G G84A A97G U102G G136C,≤ -4.2
16,C36G G92C A121C C125A,≤ -4.2
17,A3U U90C A97G A150G,-3.73
18,U33G C38A A39U C76U C99U A150U,≤ -4.2
19,G67U G70U G81A G83U A97U,≤ -4.2
20,A107U,-3.06
21,A52U G71C G92A C96G,≤ -4.2
22,A41C U82A C125A,-0.821
23,A21C A41U C85U C95U,-1.34
24,U53G C123A G126C,-1.32

row,Variant,polymerase ribozyme fitness (log ratio)
1,A19U U55C C57A A66C C85G U109G,≤ -4.2
2,A26U G141U U144G,-3.78
3,G81C G117U,0.139
4,C18G G92A,-3.23
5,A28U C57G,-3.84
6,A39C C96U,-2.7
7,G11U A22G G59U G65C A98U U127C C129G,≤ -4.2
8,U61G C75U G92A C149A,≤ -4.2
9,A97U C123U,0.268
10,G59A A106C A113C C118G,≤ -4.2
11,C14U A52G U53G G74A A91C C96U G141U,≤ -4.2
12,A3U A37U G42C C57U C95A A120G,≤ -4.2
13,G48U G86C,-3.31
14,C85U C114A,-3.52
15,A17U C32U A52C G84C U90C U109G,≤ -4.2
16,G11C C93A,-3.87
17,U13C A41U U55A C96U C118A,-2.88
18,A39C G50A G86A G94U G133A,≤ -4.2
19,A98G C103A,-0.961
20,A12G A23G U31A C35U U56A,-3.98
21,G59U U82A C93A A142C,≤ -4.2
22,A22C G83U A115G,-1.96
23,C14G G80A,-1.72
24,C35U A147C,-0.582

row,Variant,polymerase ribozyme fitness (log ratio)
1,A41U A89G U90C G94A A121C,≤ -4.2
2,A21U U53A A73C C76A G88A C114U U134A,≤ -4.2
3,A21U A30U U33A C54G C87G,≤ -4.2
4,G50C A98U,-2.38
5,A16G U33G A39C G58U U151G,≤ -4.2
6,G84A A115U U134G,-4.01
7,U55A U109G,-1.03
8,U33A C51U C57G C75G C93U C125A G140U,≤ -4.2
9,U55C G124C,-1.14
10,U33G U44A C93A C103A C105G G133C,≤ -4.2
11,C18U U144C C149U,-4.09
12,U9G C38U U44C G46A U56A C79G C96A A142G,≤ -4.2
13,U31C A41U G48C U55G A89U,-2.77
14,U6G G62C U82G,-0.631
15,U9G C14U A29C C35A C87U G92A G94U A98U A137U,≤ -4.2
16,A30C U55A C57G C93U C105G G124U,≤ -4.2
17,A22G G25U C38A A52G C96U,-2.43
18,C57A G92C C123A,-0.277
19,U4G G140C,≤ -4.2
20,C96A A113U U144A,-2.58
21,G58A C69A U82G A120U U134C,-1.34
22,A19G G84A U146C,-0.526
23,C85G A121U,-3.11
